In US20140336113A1 (VANDERBILT UNIVERSITY, published 2014):
Positions of bridges follow the written chain, without caps; N, C: chain ends. No end group written: not given here. *: point of attachment. Biotin = O=C1N[C@H]2[C@H](CS[C@H]2CCCCC(=O)*)N1

B1: biotinylated SN50 peptide (peptide)
peptide: Biotin-AAVALLPAVLLALLAPVQRKRQKLMP
notes: also called NTM; full-length biotinylated NTM
B2: biotinylated cSN50.1 peptide (peptide)
peptide: Biotin-AAVALLPAVLLALLAPCVQRKRQKLMPC
modifications: disulfide 17-28 (inferred)
notes: the N-biotinylated version was used in the pull-down assays; also called NTM; full-length biotinylated NTM
B3: biotinylated cSN50.1 Beta peptide (peptide)
peptide: Biotin-AAVALLPAVLLALLAPCVQRDEQKLMPC
modifications: disulfide 17-28 (inferred)
notes: cSN50.1 with lysine 21 replaced by aspartic acid and arginine 22 replaced by glutamic acid

Assays:
GAPDH = molecular target: T1, GAPDH (human, UniProt P04406 2-335); test: pull-down from human Jurkat T cell lysate, immunoblot
T1 construct: Cellular protein control of the pull-down; also called control cytoplasmic marker protein GAPDH; control protein GAPDH
T1 sequence (P04406 2-335 limits assumed): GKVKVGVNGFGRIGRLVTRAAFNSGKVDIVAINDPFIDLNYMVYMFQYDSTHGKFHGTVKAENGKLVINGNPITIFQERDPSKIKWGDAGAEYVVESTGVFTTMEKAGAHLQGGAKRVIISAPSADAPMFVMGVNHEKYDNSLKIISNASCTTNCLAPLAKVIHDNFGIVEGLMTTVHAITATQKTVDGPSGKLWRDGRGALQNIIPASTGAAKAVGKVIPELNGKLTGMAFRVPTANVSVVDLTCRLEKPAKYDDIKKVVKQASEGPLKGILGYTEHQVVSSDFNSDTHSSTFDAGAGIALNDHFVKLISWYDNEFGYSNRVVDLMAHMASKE
Protocol: (§1) Cell-penetrating peptide cSN50.1 (2986 Da) and other peptides listed in Table 1 were synthesized and prepared as previously described (Liu, D., et al., (2009) Mol Ther 17, 796-802). Biotinylated NTM peptides and their constituent modules were prepared in the same manner, with biotin added to the amino terminus at the last step of synthesis. When necessary, a 5-7 hydrophilic amino acid tag was added to peptide modules to facilitate solubility. For i.p. administration, 200 μl aliquots containing 0.4 or 0.7 mg of cSN50.1 in saline was injected at 8 h or 12 h intervals. Alternatively, 10 mg cSN50.1 in 100 μl sterile H₂O was administered subcutaneously from ALZET Osmotic Pumps (1007D) placed aseptically in interscapular areas. A bolus of 0.7 mg cSN50.1 in 100 μl saline was administered i.p. at weekly pump changes to assure steady NTM bioavailability. Dosage schedules were developed based on previous experimental protocols and half-life studies. Control mice received sterile saline in the same volumes as NTM. Importins pull-down assay. Ten nmols of biotinylated NTM peptides or their constituent modules depicted in Table 1 (SN50, cSN50.1, N50, cN50.1, SSHR-1, SSHR-2) were incubated overnight at 4° C. with 1.5 mg of whole cell extract from unstimulated human Jurkat T cells or serum-starved human HepG2 cells lysed in binding buffer (10 mM HEPES at pH 7.9, 150 mM NaCl, 10 mM KCl, 2.5 mM MgCl₂, 1 mM EGTA, 1 mM DTT, 0.1% NP-40, 1% protease inhibitor cocktail). Lysate was cleared by centrifugation (16,000×g for 30 min at 4° C.) and transferred to a fresh tube containing high capacity Neutravidin beads (Thermo Scientific). After 4 h, beads were separated from lysate/peptide mixture by centrifugation (30 s at 1,000×g) and washed 3 times with binding buffer and 2 times with PBS. Beads were boiled for 10 min in SDS loading buffer, and protein content was analyzed by immunoblotting with a panel of anti-importins alpha and beta antibodies and anti-GAPDH (Abcam) as a cellular protein control.

importin alpha 5 = molecular target: T2, importin alpha 5 (human, UniProt P52294 1-538); test: pull-down from cell lysate, immunoblot
T2 construct: also called importins alpha; importins/karyopherins alpha
T2 sequence (P52294 whole entry): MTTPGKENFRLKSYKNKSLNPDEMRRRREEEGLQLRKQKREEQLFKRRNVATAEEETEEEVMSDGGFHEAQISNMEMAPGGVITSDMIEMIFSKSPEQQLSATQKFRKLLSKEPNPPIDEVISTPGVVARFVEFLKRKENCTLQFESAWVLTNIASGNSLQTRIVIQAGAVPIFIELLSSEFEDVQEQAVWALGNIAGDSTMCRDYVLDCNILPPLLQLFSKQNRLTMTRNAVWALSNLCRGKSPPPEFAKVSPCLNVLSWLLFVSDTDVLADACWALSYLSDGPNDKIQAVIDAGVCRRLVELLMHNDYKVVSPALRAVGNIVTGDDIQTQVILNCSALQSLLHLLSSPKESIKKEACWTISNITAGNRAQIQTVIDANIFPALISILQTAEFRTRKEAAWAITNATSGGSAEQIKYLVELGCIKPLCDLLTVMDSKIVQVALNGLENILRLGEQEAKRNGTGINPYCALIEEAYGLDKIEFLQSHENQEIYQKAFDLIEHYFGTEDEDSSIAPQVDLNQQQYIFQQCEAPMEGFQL

importin alpha 1 = importin alpha 1 (human, UniProt P52292 2-529); test: pull-down from cell lysate, immunoblot
importin beta = molecular target: T3, importin beta (human, UniProt Q14974 1-876); test: pull-down from human Jurkat T cell lysate, immunoblot
T3 construct: also called imp beta; nuclear transport shuttle for SREBPs
T3 sequence (Q14974 whole entry): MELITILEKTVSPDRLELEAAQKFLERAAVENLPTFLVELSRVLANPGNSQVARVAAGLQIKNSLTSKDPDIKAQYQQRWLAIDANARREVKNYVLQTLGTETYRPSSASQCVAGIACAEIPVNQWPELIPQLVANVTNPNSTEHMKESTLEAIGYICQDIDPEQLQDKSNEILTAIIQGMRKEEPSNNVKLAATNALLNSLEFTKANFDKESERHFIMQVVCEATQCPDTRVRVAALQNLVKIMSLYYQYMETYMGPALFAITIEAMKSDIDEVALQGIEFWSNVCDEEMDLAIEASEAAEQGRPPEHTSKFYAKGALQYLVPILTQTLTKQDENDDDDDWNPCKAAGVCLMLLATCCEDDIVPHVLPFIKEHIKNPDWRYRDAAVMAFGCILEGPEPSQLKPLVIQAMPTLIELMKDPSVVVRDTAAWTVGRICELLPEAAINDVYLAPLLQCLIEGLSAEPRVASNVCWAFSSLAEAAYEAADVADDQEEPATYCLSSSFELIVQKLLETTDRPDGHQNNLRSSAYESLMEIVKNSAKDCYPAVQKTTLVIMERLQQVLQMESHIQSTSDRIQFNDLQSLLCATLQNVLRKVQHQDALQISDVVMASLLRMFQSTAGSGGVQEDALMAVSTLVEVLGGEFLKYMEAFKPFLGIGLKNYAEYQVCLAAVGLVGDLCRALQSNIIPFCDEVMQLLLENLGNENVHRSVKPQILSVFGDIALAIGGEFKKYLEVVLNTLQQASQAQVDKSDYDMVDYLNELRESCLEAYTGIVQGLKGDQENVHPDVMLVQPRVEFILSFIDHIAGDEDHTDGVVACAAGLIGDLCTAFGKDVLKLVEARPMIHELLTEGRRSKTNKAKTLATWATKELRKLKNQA
Protocol: as §1

| Binder | binding result (GAPDH) | binding result (importin beta) | other results |
| --- | --- | --- | --- |
| B1 | no binding | – | – |
| B2 | no binding | – | – |
| B3 | – | – | binding result (importin alpha 5): no binding; binding result (importin alpha 1): no binding |
| Biotin-VQRKRQKLMP (NLS segment of SN50, no SSHR) [biotinylated N50 peptide] | – | no binding | – |
| Biotin-CVQRKRQKLMPC (disulfide 1-12 (inferred), NLS segment of cSN50.1, no SSHR) [biotinylated cN50.1 peptide] | – | no binding | – |
